This series can be described thus: in vivo. The following applies: BALB/c nude, mouse, iv, total radioactivity. On the procedure: To a 0.5 M NaOAc buffer (20-50 μL, pH=4.5) was added 4 μL of exemplary or comparator compound in DMSO stock solution (2000 μM) and 2 mCi ^177Lu (ITM Isotope Technologies Munich), the resulting mixture was heated to 95° C. for 15 min. The resulting product was analyzed by radio-TLC and radio-HPLC (column: Shim-pack GIST 5 μm 4.6*150 mm; buffer A: 0.2% formic acid H2O; buffer B: 0.1% formic acid acetonitrile; flow rate: 1 mL/min; gradient: 0-5 min: 10% B to 95% B; then 5-8 min: 95% B). The labelled products were used immediately or diluted by a PBS buffer containing freshly added 3 mg/mL ascorbate.
All animal care and experimental procedure were performed by following the animal protocols approved by the ethics committee of China Institute of Radiation Protection. The BALB/c nude mice (Charles River, Beijing) were utilized for these studies. Mice were below 5 per cage in sterile, microisolator cages under temperature- and humidity-controlled conditions with a 12 h light/12 h dark schedule and fed irradiated rodent chow and reverse osmosis (RO) sterile water ad libitum. In preparation for tumor cell inoculations, mice were anesthetized with isoflurane (RWD Life Science Inc.) at an induction rate of 4% and maintained at a rate of 2.5% with 0.4 L oxygen delivered via precision vaporizer and a non-rebreathing apparatus. These mice received subcutaneous rear flank injections of approximately 4×10^6 AR42J cells ([…] pancreatic cancer cell line) suspended in 200 μL of phosphate-buffered saline (PBS) and Matrigel (Corning) (1/1). Xenografted tumors were allowed to grow for ~2-4 weeks post-inoculation and ranged in mass from 0.05 to 0.50 g (average tumor size, 0.20 g). […] The mice were euthanized, and the tissues and organs were excised from the animals at 4, 24 and 72 h post-injection. The tissues and organs were weighed, counted in a PerkinElmer 2480 WIZARD2 γ counter, and the percent injected dose (% ID) and % ID/g of each organ or tissue were calculated.

The mark [1] stands for this setting: in vivo, T/K Tumor/Kidney ratio.
The mark [2] stands for this setting: in vivo, T/P Tumor/Pancreas ratio.
Where [3] appears, read: in vivo, T/Sp Tumor/Spleen ratio.
Setting [4] is: in vivo, T/St Tumor/Stomach ratio.

The structures appear in SMILES notation. *1 amine or outer side, *2 acyl side, *3 side chain or, on linkers, in order; H or OH if unused. Where a SMILES comes first, the peptide text is derived from it. Bridges are numbered along the chain shown (N, C = ends). Side-chain parts run from the residue outwards. [ ]: non-standard residue; d: D form. The star is where a group is joined. X1 = CC(C)(C)C(=O)CN1C(=O)[C@H](N*)CN(C2CCCCC2)c2ccccc21; DOTA = O=C(O)CN1CCN(CC(=O)O)CCN(CC(=O)*)CCN(CC(=O)O)CC1; 3Abz = Nc1cccc(C(=O)O)c1; CO = O=C([*:1])[*:2]

As for `CCCC[C@H](NC(=O)[C@H](Cc1c[nH]c2ccccc12)NC(=O)CNC(=O)[C@H](Cc1ccc(O)cc1)NC(=O)[C@H](C)NC(=O)[C@@H](CCC(=O)O)NC(=O)[C@@H](CCC(=O)O)NC(=O)[C@@H](CCC(=O)O)NC(=O)[C@@H](CCC(=O)O)NC(=O)[C@@H](CCC(=O)O)NC(=O)[C@@H](CCC(=O)O)NC(=O)CN1CCN(CC(=O)O)CCN(CC(=O)O)CCN(CC(=O)O)CC1)C(=O)N[C@@H](CC(=O)O)C(=O)N[C@@H](Cc1ccccc1)C(N)=O` [^177Lu-C-2, metal not drawn, reference compound], the tissue uptake at 4 h runs as follows: (in vivo, % ID/g Blood) 0.08 %ID/g; (in vivo, % ID/g Femur) 0.12 %ID/g; (in vivo, % ID/g Heart) 0.05 %ID/g; (in vivo, % ID/g Intestine) 0.06 %ID/g; (in vivo, % ID/g Kidney) 2.72 %ID/g; (in vivo, % ID/g Liver) 0.15 %ID/g. In addition, the tissue uptake at 4 h was determined as 0.06 %ID/g (in vivo, % ID/g Lung); 0.06 %ID/g (in vivo, % ID/g Muscle); 0.01 %ID/g (in vivo, % ID/g Pancreas); 0.06 %ID/g (in vivo, % ID/g Spleen); 0.21 %ID/g (in vivo, % ID/g Stomach); 1.07 %ID/g (in vivo, % ID/g Tumor). Also, the tissue uptake at 24 h (in vivo, % ID/g Blood) was found to be 0.01 %ID/g; the tissue uptake at 24 h (in vivo, % ID/g Femur) stood at 0.24 %ID/g; the tissue uptake at 24 h (in vivo, % ID/g Heart) turned out to be 0.04 %ID/g; the tissue uptake at 24 h (in vivo, % ID/g Intestine) was found to be 0.05 %ID/g; the tissue uptake at 24 h (in vivo, % ID/g Kidney) was 0.71 %ID/g; the tissue uptake at 24 h (in vivo, % ID/g Liver) came out at 0.12 %ID/g. Moreover, the tissue uptake at 24 h reads like this: (in vivo, % ID/g Lung) 0.11 %ID/g; (in vivo, % ID/g Muscle) 0.01 %ID/g; (in vivo, % ID/g Spleen) 0.05 %ID/g; (in vivo, % ID/g Stomach) 0.17 %ID/g; (in vivo, % ID/g Tumor) 0.82 %ID/g; (pancreas, % ID/g Pancreas, 24 h post-injection, n=3) 0.02 %ID/g.
With `C[C@@H](O)[C@H](NC(=O)[C@@H]1CSSC[C@H](NC(=O)[C@@H](Cc2ccccc2)NC(=O)[C@H](CCCCNC(=O)c2cccc(NC(=O)N[C@@H]3CN(C4CCCCC4)c4ccccc4N(CC(=O)C(C)(C)C)C3=O)c2)NC(=O)CNC(=O)CNC(=O)CN2CCN(CC(=O)O)CCN(CC(=O)O)CCN(CC(=O)O)CC2)C(=O)N[C@@H](Cc2ccc(O)cc2)C(=O)N[C@H](Cc2c[nH]c3ccccc23)C(=O)N[C@@H](CCCCN)C(=O)N[C@@H]([C@@H](C)O)C(=O)N1)C(=O)O` [Compound I-49, DOTA-G-G-K(Z360)-f[CYwKTC]T-OH] ({DOTA}-GGK([3Abz-CO-X1])[dF]CY[dW]KTCT-OH; disulfide 5-10), the tissue to tissue ratio at 24 h is, setting by setting: under setting [1], 1.5; (in vivo, T/L Tumor/Liver ratio) 1.5; under setting [2], 9.8; under setting [3], 14; under setting [4], 3.2. In addition, the tissue uptake at 24 h by setting is: (in vivo, uptake Kidney) 5.93 %ID/g; (in vivo, uptake Liver) 5.92 %ID/g; (in vivo, uptake Pancreas) 0.92 %ID/g; (in vivo, uptake Spleen) 0.62 %ID/g; (in vivo, uptake Stomach) 2.77 %ID/g; (in vivo, uptake Tumor) 8.97 %ID/g.
As to `C[C@@H](O)[C@H](NC(=O)[C@@H]1CSSC[C@H](NC(=O)[C@@H](Cc2ccccc2)NC(=O)CCCCCCCNC(=O)[C@H](CCCCNC(=O)c2cccc(NC(=O)N[C@@H]3CN(C4CCCCC4)c4ccccc4N(CC(=O)C(C)(C)C)C3=O)c2)NC(=O)CN2CCN(CC(=O)O)CCN(CC(=O)O)CCN(CC(=O)O)CC2)C(=O)N[C@@H](Cc2ccc(O)cc2)C(=O)N[C@H](Cc2c[nH]c3ccccc23)C(=O)N[C@@H](CCCCN)C(=O)N[C@@H]([C@@H](C)O)C(=O)N1)C(=O)O` [Compound I-61, DOTA-K(Z360)-Aoc-f[CYwKTC]T-OH], the tissue to tissue ratio at 24 h under setting [1] is 3.5; the tissue to tissue ratio at 24 h (in vivo, T/L Tumor/Liver ratio) was found to be 0.1; the tissue to tissue ratio at 24 h under setting [2] was 16; the tissue to tissue ratio at 24 h under setting [3] is 0.2; the tissue to tissue ratio at 24 h under setting [4] was determined as 4.5. Also, the tissue uptake at 24 h (in vivo, uptake Kidney) amounted to 1.53 %ID/g; the tissue uptake at 24 h (in vivo, uptake Liver) stood at 53.3 %ID/g; the tissue uptake at 24 h (in vivo, uptake Pancreas) came out at 0.34 %ID/g; the tissue uptake at 24 h (in vivo, uptake Spleen) was 28.3 %ID/g; the tissue uptake at 24 h (in vivo, uptake Stomach) was 1.21 %ID/g; the tissue uptake at 24 h (in vivo, uptake Tumor) is 5.41 %ID/g.
Take `C[C@@H](O)[C@H](NC(=O)[C@@H]1CSSC[C@H](NC(=O)[C@@H](Cc2ccccc2)NC(=O)[C@H](CCCCNC(=O)c2cccc(NC(=O)N[C@@H]3CN(C4CCCCC4)c4ccccc4N(CC(=O)C(C)(C)C)C3=O)c2)NC(=O)CCOCCOCCOCCNC(=O)CN2CCN(CC(=O)O)CCN(CC(=O)O)CCN(CC(=O)O)CC2)C(=O)N[C@@H](Cc2ccc(O)cc2)C(=O)N[C@H](Cc2c[nH]c3ccccc23)C(=O)N[C@@H](CCCCN)C(=O)N[C@@H]([C@@H](C)O)C(=O)N1)C(=O)O` [Compound I-48, DOTA-PEG3-K(Z360)-f[CYwKTC]T-OH]: the tissue to tissue ratio at 24 h by setting is: under setting [1], 1.8; (in vivo, T/L Tumor/Liver ratio) 2.7; under setting [2], 14; under setting [3], 19; under setting [4], 4. In addition, the tissue uptake at 24 h by setting is: (in vivo, uptake Kidney) 10.6 %ID/g; (in vivo, uptake Liver) 7.02 %ID/g; (in vivo, uptake Pancreas) 1.35 %ID/g; (in vivo, uptake Spleen) 1.02 %ID/g; (in vivo, uptake Stomach) 4.75 %ID/g; (in vivo, uptake Tumor) 18.9 %ID/g.
For `C[C@@H](O)[C@H](NC(=O)[C@@H]1CSSC[C@H](NC(=O)[C@@H](Cc2ccccc2)NC(=O)COCCOCCNC(=O)[C@H](CCCCNC(=O)CC[C@H](NC(=O)CNC(=O)c2cccc(NC(=O)N[C@@H]3CN(C4CCCCC4)c4ccccc4N(CC(=O)C(C)(C)C)C3=O)c2)C(=O)O)NC(=O)COCCOCCNC(=O)CC[C@H](NC(=O)CC[C@H](NC(=O)CN2CCN(CC(=O)O)CCN(CC(=O)O)CCN(CC(=O)O)CC2)C(=O)O)C(=O)O)C(=O)N[C@@H](Cc2ccc(O)cc2)C(=O)N[C@H](Cc2c[nH]c3ccccc23)C(=O)N[C@@H](CCCCN)C(=O)N[C@@H]([C@@H](C)O)C(=O)N1)C(=O)O` [^177Lu-1-14, metal not drawn], the tissue uptake at 4 h by setting is: (in vivo, % ID/g Adrenal gland) 3.55 %ID/g; (in vivo, % ID/g Blood) 1.32 %ID/g; (in vivo, % ID/g Femur) 0.49 %ID/g; (in vivo, % ID/g Heart) 0.8 %ID/g; (in vivo, % ID/g Intestine) 0.6 %ID/g; (in vivo, % ID/g Kidney) 48.2 %ID/g. The tissue uptake at 4 h was 3.31 %ID/g (in vivo, % ID/g Liver); 1.32 %ID/g (in vivo, % ID/g Lung); 0.17 %ID/g (in vivo, % ID/g Muscle); 2.11 %ID/g (in vivo, % ID/g Pancreas); 0.64 %ID/g (in vivo, % ID/g Spleen); 3.68 %ID/g (in vivo, % ID/g Stomach). Where the note is “in vivo, % ID/g Tumor”, the tissue uptake at 4 h turned out to be 30.9 %ID/g. Besides, the tissue uptake at 24 h was found to be 2.72 %ID/g (in vivo, % ID/g Adrenal gland); 0.09 %ID/g (in vivo, % ID/g Blood); 0.4 %ID/g (in vivo, % ID/g Femur); 0.17 %ID/g (in vivo, % ID/g Heart); 1.25 %ID/g (in vivo, % ID/g Intestine); 68.6 %ID/g (in vivo, % ID/g Kidney). In addition, the tissue uptake at 24 h by setting is: (in vivo, % ID/g Liver) 2.24 %ID/g; (in vivo, % ID/g Lung) 0.72 %ID/g; (in vivo, % ID/g Muscle) 0.17 %ID/g; (in vivo, % ID/g Pancreas) 3.37 %ID/g; (in vivo, % ID/g Spleen) 0.56 %ID/g; (in vivo, % ID/g Stomach) 2.25 %ID/g. Also, where the note is “in vivo, % ID/g Tumor”, the tissue uptake at 24 h was 14.9 %ID/g. In addition, the tissue uptake at 72 h by setting is: (in vivo, % ID/g Adrenal gland) 1.44 %ID/g; (in vivo, % ID/g Blood) 0.02 %ID/g; (in vivo, % ID/g Femur) 0.31 %ID/g; (in vivo, % ID/g Heart) 0.19 %ID/g; (in vivo, % ID/g Intestine) 0.37 %ID/g; (in vivo, % ID/g Kidney) 24.3 %ID/g. Moreover, the tissue uptake at 72 h came to 1.28 %ID/g (in vivo, % ID/g Liver); 0.95 %ID/g (in vivo, % ID/g Lung); 0.11 %ID/g (in vivo, % ID/g Muscle); 3.14 %ID/g (in vivo, % ID/g Pancreas); 2.17 %ID/g (in vivo, % ID/g Spleen); 2.99 %ID/g (in vivo, % ID/g Stomach). In addition, the tissue uptake at 72 h (in vivo, % ID/g Tumor) worked out at 18 %ID/g.

Usually tissue uptake stands for the share of the injected amount in each gram of the tissue.

The values above are taken from patent publication US20260248972A1, “DUAL RECEPTOR TARGETING RADIOLIGANDS AND USES THEREOF RELATED APPLICATIONS” (priority 2022, published 2026).
